Where a chain is given by its changes, count along the chain named.
T1: human recombinant NKG2D-Fc (human, UniProt P26718 73-216)
T1 construct: extracellular domain; also called recombinant human NKG2D-Fc; NKG2D-Fc fusion protein; not shown: human IgG1 Fc domain
T1 sequence (looked up): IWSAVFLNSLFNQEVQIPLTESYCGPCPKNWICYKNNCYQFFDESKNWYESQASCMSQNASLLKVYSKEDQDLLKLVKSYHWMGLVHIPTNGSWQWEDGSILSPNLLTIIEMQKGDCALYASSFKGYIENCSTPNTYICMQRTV

T2: cynomolgus recombinant NKG2D-Fc (cynomolgus; human, UniProt P61252 73-216)
T2 construct: extracellular domain; also called cynomolgus NKG2D-Fc; not shown: human IgG1 Fc domain
T2 sequence (looked up): T1 sequence (looked up) with D43N, T133I

T3: mouse recombinant NKG2D-Fc (mouse; human, UniProt O54709 90-232)
T3 construct: extracellular domain; also called recombinant mouse NKG2D-Fc; Mouse NKG2D-Fc-biotin; not shown: human IgG1 Fc domain
T3 sequence (looked up): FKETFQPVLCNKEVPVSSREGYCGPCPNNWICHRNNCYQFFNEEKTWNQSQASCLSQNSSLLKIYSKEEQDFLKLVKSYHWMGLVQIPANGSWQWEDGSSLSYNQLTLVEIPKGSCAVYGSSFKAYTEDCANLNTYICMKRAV

B1: ADI-29443 (antibody, V domains shown)
VH: QLQLQESGPGLVKPSETLSLTCTVSGGSISSSSYYWGWIRQPPGKGLEWIGSIYYSGSTYYNPSLKSRVTISVDTSKNQFSLKLSSVTAADTAVYYCARGSDRFHPYFDYWGQGTLVTVSS
VL: EIVLTQSPATLSLSPGERATLSCRASQSVSRYLAWYQQKPGQAPRLLIYDASNRATGIPARFSGSGSGTDFTLTISSLEPEDFAVYYCQQFDTWPPTFGGGTKVEIK
notes: also called F43
B2: ADI-27705 (antibody, V domains shown)
VH: QVQLQQWGAGLLKPSETLSLTCAVYGGSFSGYYWSWIRQPPGKGLEWIGEIDHSGSTNYNPSLKSRVTISVDTSKNQFSLKLSSVTAADTAVYYCARARGPWSFDPWGQGTLVTVSS
VL: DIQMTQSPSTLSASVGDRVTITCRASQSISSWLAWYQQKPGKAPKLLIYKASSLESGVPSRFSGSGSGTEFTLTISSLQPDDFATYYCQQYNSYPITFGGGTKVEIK
B3: ADI-27724 (antibody, V domains shown)
VH: B2 VH
VL: not shown
B4: ADI-29403 (antibody, V domains shown)
VH: B2 VH
VL: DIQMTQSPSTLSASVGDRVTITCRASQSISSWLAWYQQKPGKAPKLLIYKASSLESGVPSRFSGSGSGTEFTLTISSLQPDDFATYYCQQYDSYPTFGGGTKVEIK
B5: ADI-29429 (antibody, V domains shown)
VH: B2 VH
VL: DIQMTQSPSTLSASVGDRVTITCRASQSIGSWLAWYQQKPGKAPKLLIYKASSLESGVPSRFSGSGSGTEFTLTISSLQPDDFATYYCQQYELYSYTFGGGTKVEIK
B6: ADI-29425 (antibody, V domains shown)
VH: B2 VH
VL: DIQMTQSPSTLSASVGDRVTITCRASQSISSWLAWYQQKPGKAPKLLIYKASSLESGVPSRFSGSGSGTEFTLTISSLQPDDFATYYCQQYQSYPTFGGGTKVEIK
B7: ADI-27740 (antibody, V domains shown)
VH: B2 VH
VL: DIQMTQSPSTLSASVGDRVTITCRASQSIGSWLAWYQQKPGKAPKLLIYKASSLESGVPSRFSGSGSGTEFTLTISSLQPDDFATYYCQQYHSFYTFGGGTKVEIK
notes: also called A40
B8: ADI-29426 (antibody, V domains shown)
VH: B2 VH
VL: B7 VL with Y95P
B9: ADI-29419 (antibody, V domains shown)
VH: B2 VH
VL: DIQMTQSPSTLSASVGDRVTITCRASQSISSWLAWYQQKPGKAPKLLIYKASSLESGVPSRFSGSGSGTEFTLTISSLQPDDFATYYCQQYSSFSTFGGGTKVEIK
B10: ADI-29399 (antibody, V domains shown)
VH: B2 VH
VL: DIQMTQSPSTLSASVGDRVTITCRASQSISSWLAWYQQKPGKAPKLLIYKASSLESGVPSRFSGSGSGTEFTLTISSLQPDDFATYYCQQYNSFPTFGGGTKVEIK
B11: ADI-27743 (antibody, V domains shown)
VH: B2 VH
VL: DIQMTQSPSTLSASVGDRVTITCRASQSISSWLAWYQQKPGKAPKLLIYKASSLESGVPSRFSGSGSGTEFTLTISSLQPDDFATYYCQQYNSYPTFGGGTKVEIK
B12: ADI-27741 (antibody, V domains shown)
VH: B2 VH
VL: B7 VL with Y91S, H92N, F94Y
B13: ADI-29404 (antibody, V domains shown)
VH: B2 VH
VL: B7 VL with G30S, Q89E, H92D, F94Y, Y95P
notes: also called F04
B14: ADI-29424 (antibody, V domains shown)
VH: B2 VH
VL: B7 VL with G30S, H92D, Y95I
B15: ADI-29405 (antibody, V domains shown)
VH: B2 VH
VL: B7 VL with G30S, H92G, Y95P
B16: ADI-29447 (antibody, V domains shown)
VH: B2 VH
VL: B7 VL with G30S, H92D, S93T, Y95I
notes: also called F47
B17: ADI-28226 (antibody, V domains shown)
VH: B2 VH
VL: B5 VL with G30S, E92G, L93S, Y94F, S95P, Y96I
notes: also called C26
B18: ADI-29407 (antibody, V domains shown)
VH: B2 VH
VL: B7 VL with G30S, H92Q, Y95P
B19: ADI-29421 (antibody, V domains shown)
VH: B2 VH
VL: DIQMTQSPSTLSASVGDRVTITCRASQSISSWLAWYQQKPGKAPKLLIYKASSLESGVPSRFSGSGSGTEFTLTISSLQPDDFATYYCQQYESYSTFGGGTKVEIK
B20: ADI-29401 (antibody, V domains shown)
VH: B2 VH
VL: B7 VL with H92D, S93I, F94Y, Y95P
B21: ADI-27727 (antibody, V domains shown)
VH: QVQLVQSGAEVKKPGSSVKVSCKASGGTFSSYAISWVRQAPGQGLEWMGGIIPIFGTANYAQKFQGRVTITADESTSTAYMELSSLRSEDTAVYYCARGDSSIRHAYYYYGMDVWGQGTTVTVSS
VL: not shown

These binders were tested against T1, human recombinant NKG2D-Fc (assay: ELISA on coated NKG2D-Fc;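 also: titrated NKG2D binders added to plates coated with human, mouse or cynomolgus NKG2D ectodomain–human IgG1 Fc fusions, detected by HRP anti-human kappa antibody with TMB, absorbance at 450 nm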).
Description: (§1) The nucleic acid sequences of human, mouse or cynomolgus NKG2D ectodomains were fused with nucleic acid sequences encoding human IgG1 Fc domains and introduced into mammalian cells to be expressed. After purification, NKG2D-Fc fusion proteins were adsorbed to wells of microplates. After blocking the wells with bovine serum albumin to prevent non-specific binding, NKG2D-binding domains were titrated and added to the wells pre-adsorbed with NKG2D-Fc fusion proteins. Primary antibody binding was detected using a secondary antibody which was conjugated to horseradish peroxidase and specifically recognizes a human kappa light chain to avoid Fc cross-reactivity. 3,3′,5,5′-Tetramethylbenzidine (TMB), a substrate for horseradish peroxidase, was added to the wells to visualize the binding signal, whose absorbance was measured at 450 nm and corrected at 540 nM.

Binding result, binds:
B1
B2
B3
B4
B5
B6
B7
B8
B9
B10
B11
B12
B13
B14
B15
B16
B17
B18
B19
B20
B21

These binders were tested against T2, cynomolgus recombinant NKG2D-Fc (assay: ELISA on coated NKG2D-Fc;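 also: titrated NKG2D binders added to plates coated with human, mouse or cynomolgus NKG2D ectodomain–human IgG1 Fc fusions, detected by HRP anti-human kappa antibody with TMB, absorbance at 450 nm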).
Description: as §1

Binding result, binds:
B2
B3
B4
B5
B6
B7
B8
B9
B10
B11
B12
B13
B14
B15
B16
B17
B18
B19
B20
B21

These binders were tested against T3, mouse recombinant NKG2D-Fc (assay: ELISA on coated NKG2D-Fc;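 also: titrated NKG2D binders added to plates coated with human, mouse or cynomolgus NKG2D ectodomain–human IgG1 Fc fusions, detected by HRP anti-human kappa antibody with TMB, absorbance at 450 nm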).
Description: as §1

Binding result, binds:
B1
B2
B3
B4
B5
B6
B7
B8
B9
B10
B11
B12
B13
B14
B15
B16
B17
B18
B19
B20
B21
